Test results as given in US20200140562A1 (Innovent, published 2020).
Like-named read-outs stand apart in the source and are kept apart here.

Assays:
[1] = target: T1, human OX40 on cells (CHO-hOX40, 293HEK-hOX40, Jurkat-hOX40, activated primary CD4+ T cells) (human, UniProt P43489 29-277); assay: flow cytometry, CHO-hOX40, 200 nM
T1 construct: whole, on cells; The cell type is told in each assay; also called CHO-OX40
T1 sequence (looked up): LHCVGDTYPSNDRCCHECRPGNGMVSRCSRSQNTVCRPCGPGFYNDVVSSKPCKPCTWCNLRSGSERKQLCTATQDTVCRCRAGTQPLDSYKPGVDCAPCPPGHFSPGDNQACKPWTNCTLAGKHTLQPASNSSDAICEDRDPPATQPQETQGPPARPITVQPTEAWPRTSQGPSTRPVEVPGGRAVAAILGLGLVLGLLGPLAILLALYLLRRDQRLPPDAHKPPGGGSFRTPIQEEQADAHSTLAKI

[2] = target: T1, human OX40 on cells (CHO-hOX40, …); assay: flow cytometry, CHO-hOX40, 0.390625 nM
[3] = target: T1, human OX40 on cells (CHO-hOX40, …); assay: flow cytometry, CHO-hOX40, 1.5625 nM
[4] = target: T1, human OX40 on cells (CHO-hOX40, …); assay: flow cytometry, CHO-hOX40, 0.048828125 nM
[5] = target: T1, human OX40 on cells (CHO-hOX40, …); assay: flow cytometry, CHO-hOX40, 0.390625 nM; remark: listed apart in the source
[6] = target: T1, human OX40 on cells (CHO-hOX40, …); assay: flow cytometry competition on CHO cells expressing human OX40; blocked ligand OX40L-mFc (60 ug/ml), detected with anti-murine Fc-FITC
[7] = target: T1, human OX40 on cells (CHO-hOX40, …); assay: flow cytometry, CHO-hOX40, 0.1953125 nM
[8] = target: T1, human OX40 on cells (CHO-hOX40, …); assay: flow cytometry, CHO-hOX40
[9] = target: T1, human OX40 on cells (CHO-hOX40, …); assay: flow cytometry, CHO-hOX40, 50 nM
[10] = target: T1, human OX40 on cells (CHO-hOX40, …); assay: flow cytometry, CHO-hOX40, 0.09765625 nM
[11] = target: T1, human OX40 on cells (CHO-hOX40, …); assay: cell-based or functional assay
[12] = target: T1, human OX40 on cells (CHO-hOX40, …); assay: flow cytometry, CHO-hOX40, 50 nM; remark: listed apart in the source
[13] = target: T1, human OX40 on cells (CHO-hOX40, …); assay: flow cytometry, CHO-hOX40, 0.048828125 nM; remark: listed apart in the source
[14] = target: T1, human OX40 on cells (CHO-hOX40, …); assay: flow cytometry, CHO-hOX40, 25 nM
[15] = target: T1, human OX40 on cells (CHO-hOX40, …); assay: flow cytometry, CHO-hOX40, 3.125 nM
[16] = target: T1, human OX40 on cells (CHO-hOX40, …); assay: flow cytometry, CHO-hOX40, 0.024414063 nM
[17] = target: T1, human OX40 on cells (CHO-hOX40, …); assay: flow cytometry, CHO-hOX40; remark: listed apart in the source
[18] = target: T1, human OX40 on cells (CHO-hOX40, …); assay: flow cytometry, CHO-hOX40, 6.25 nM
[19] = target: T1, human OX40 on cells (CHO-hOX40, …); assay: flow cytometry, CHO-hOX40, 100 nM
[20] = target: T1, human OX40 on cells (CHO-hOX40, …); assay: flow cytometry, CHO-hOX40, 200 nM; remark: listed apart in the source

B1: OX40L (control reagent; recombinant OX40L, Acro Biosystems) (ligand, UniProt P23510 51-183, looked up)
chain: QVSHRYPRIQSIKVQFTEYKKEKGFILTSQKEDEIMKVQNNSVIINCDGFYLISLKGYFSQEVNISLHYQKDEEPLFQLKKVRSVNSLMVASLTYKDKVYLNVTTDNTSLDDFHVNGGELILIHQNPGEFCVL
notes: may be the same reagent as OX40L-hFc
- MFI [1]: 2.08e+06 MFI
- MFI [2]: 49700 MFI
- MFI [3]: 554000 MFI
- MFI [4]: 8350 MFI
- MFI [5]: 119000 MFI
- IC50 (read off the curve) [6]: ~20 nM
- MFI [7]: 83200 MFI
- EC50 [8]: 5.33 nM
- MFI [9]: 2.72e+06 MFI
- MFI [10]: 35200 MFI
- NFkB-Luc fold change in Jurkat stimulated by PHA+ anti-CD28 [11]: 4.82 fold over IgG4 control
- NFkB-Luc fold change in Jurkat stimulated by anti-CD3+ anti-CD28 [11]: 4.05 fold over IgG4 control
- MFI [12]: 1.08e+06 MFI
- MFI [13]: 34000 MFI
- MFI [14]: 1.84e+06 MFI
- MFI [15]: 932000 MFI
- MFI [16]: 12800 MFI
- EC50 [17]: 12.4 nM
- MFI [18]: 600000 MFI
- MFI [19]: 2.57e+06 MFI
- MFI [20]: 2.68e+06 MFI
